# Measurements published in PMC11555231 (2024).
# Ends that are not written are not given here.
# Molecular target: T1, N-terminally biotinylated recombinant human PADI4 (bio-His-PADI4) (human, UniProt Q9UM07 1-663, biotin on the N-terminal Avi-Tag (BirA))
# Assay: SPR
# T1 sequence (Q9UM07 whole entry): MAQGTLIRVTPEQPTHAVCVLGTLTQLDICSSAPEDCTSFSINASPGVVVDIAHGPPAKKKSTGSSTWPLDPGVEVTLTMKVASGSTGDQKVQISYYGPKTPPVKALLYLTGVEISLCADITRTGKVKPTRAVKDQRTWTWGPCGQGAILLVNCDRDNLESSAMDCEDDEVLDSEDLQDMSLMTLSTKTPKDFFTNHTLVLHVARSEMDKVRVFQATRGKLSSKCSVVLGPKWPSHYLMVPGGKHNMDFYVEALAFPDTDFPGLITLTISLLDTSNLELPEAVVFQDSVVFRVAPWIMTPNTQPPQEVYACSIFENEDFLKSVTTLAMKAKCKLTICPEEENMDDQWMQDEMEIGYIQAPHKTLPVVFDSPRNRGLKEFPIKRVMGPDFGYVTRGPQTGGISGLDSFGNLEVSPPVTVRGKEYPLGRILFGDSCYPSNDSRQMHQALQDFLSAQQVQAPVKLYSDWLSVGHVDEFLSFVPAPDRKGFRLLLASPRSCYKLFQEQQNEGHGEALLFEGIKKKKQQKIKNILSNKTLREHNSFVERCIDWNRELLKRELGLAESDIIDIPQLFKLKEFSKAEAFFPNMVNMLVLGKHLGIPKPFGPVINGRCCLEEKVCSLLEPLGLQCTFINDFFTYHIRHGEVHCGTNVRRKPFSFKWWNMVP
row,Kd,Binder
1,160 nM,YEACRYRQVLQL [PADI4_11 S3A]
2,1400 nM,YESCKYRQVLQL (as PADI4_11: thioether cyclisation between the N-terminus and the side chain of C4; C-terminal amide) [PADI4_11 analogue with R5 replaced by lysine]
3,20000 nM,YQSCRYRQVLQL (as PADI4_11: thioether cyclisation between the N-terminus and the side chain of C4; C-terminal amide) [PADI4_11 analogue with E2 replaced by glutamine]
4,114000 nM,YASCRYRQVLQL (as PADI4_11: thioether cyclisation between the N-terminus and the side chain of C4; C-terminal amide) [PADI4_11 analogue with E2 replaced by alanine]
5,13000 nM,YESCRARQVLQL [PADI4_11 Y6A]
6,34000 nM,YESCAYRQVLQL (as PADI4_11: thioether cyclisation between the N-terminus and the side chain of C4; C-terminal amide) [PADI4_11 analogue with R5 replaced by alanine]
7,500 nM,YESCRYRAVLQL [PADI4_11 Q8A]
8,118000 nM,YESARYRQVLQL-NH2 [PADI4_11 analogue with C4 replaced by alanine]
9,310 nM,YESCRYRQVLAL [PADI4_11 Q11A]
10,14000 nM,YESCRYRQALQL [PADI4_11 V9A]
11,300 nM,YESCRYRQVAQL [PADI4_11 L10A]
12,4000 nM,YESCRYAQVLQL (as PADI4_11: thioether cyclisation between the N-terminus and the side chain of C4; C-terminal amide) [PADI4_11 analogue with R7 replaced by alanine]
13,5100 nM,YESCRYRQVLQA [PADI4_11 L12A]
14,41000 nM,YDSCRYRQVLQL (as PADI4_11: thioether cyclisation between the N-terminus and the side chain of C4; C-terminal amide) [PADI4_11 analogue with E2 replaced by aspartic acid]
15,11100 nM,AESCRYRQVLQL [PADI4_11 Y1A]
16,> 2000 nM,YESCRY [11B]
17,500 nM,YESCRYRQVLQL (not fully specified; L-tyrosine at position 1; cyclised via a thioether bond between the N-terminus (chloroacetylated) and the side chain of C4; C-terminal amide) [PADI4_11]
18,700 nM,YESCRYKQVLQL (as PADI4_11: thioether cyclisation between the N-terminus and the side chain of C4; C-terminal amide) [PADI4_11 analogue with R7 replaced by lysine]

# Molecular target: T1, N-terminally biotinylated recombinant …
# Assay: SPR
# Remark: another data set of the same source
row,Kd,Binder
1,4 nM,YRDHHYRHPIYCG [PADI4_3_K10I]
2,8 nM,YRDHHYAHPKYCG (as PADI4_3: D-tyrosine at position 1; thioether cyclisation between the N-terminus and the cysteine side chain; C-terminal amide) [PADI4_3 variant with R7 replaced by alanine]
3,6 nM,YRDHHYWHPKYCG (as PADI4_3: D-tyrosine at position 1; thioether cyclisation between the N-terminus and the cysteine side chain; C-terminal amide) [PADI4_3 variant with R7 replaced by tryptophan]
4,41 nM,YRDHHYNHPKYCG (as PADI4_3: D-tyrosine at position 1; thioether cyclisation between the N-terminus and the cysteine side chain; C-terminal amide) [PADI4_3 variant with R7 replaced by asparagine]
5,7 nM,YRDRHYRHPIYCG (D-tyrosine at position 1; N-terminus joined to the side chain of Cys12 by a thioether bond (cyclic); C-terminal amide) [PADI3_H4R_K10_I]
6,30 nM,YRDHHHRHPKYCG [PADI4_3_Y6H]
7,5 nM,YRDHHYRHPVYCG [PADI4_3_K10V]
8,23 nM,YRDHHYRHPKYCG [PADI4_3_dY1(OMe)Y]
